Test results as given in US8815527 (Stanford University, dated 2014).

Experiments:
[1] = biological target: p38 MAPK phosphorylated at Thr180/Tyr182; experiment: flow cytometry, Jurkat T cells +Anisomycin; gate around the population with phospho-p38 stain about 15 to 100
[2] = biological target: AKT phosphorylated at Ser473; experiment: flow cytometry, Jurkat T cells +PDGF, AKT+ gated; number stands under the right-hand population (ser473 stain about 50, thr308 stain about 50); one dotted box encloses both populations
[3] = biological target: T1, Leukocyte Function Antigen-1 (LFA-1) on the cell surface (human, UniProt P20701 26-1170; P05107 23-769); experiment: cell-based or functional assay
[4] = biological target: T1, Leukocyte Function Antigen-1 (LFA-1) on …; experiment: flow cytometry, ICAM-2-FITC titration on Jurkat cells, single cell analysis
Procedure: Molecular weight was calculated using relative distance migration from a molecular weight standard. Concentration was determined using serial dilutions of BSA as a standard. […] Mean fluorescence intensity was plotted per time of a gated homogenous cell population. Flow rate was maintained at 200-300 cells/second, with fluorescence intensity values acquired at 10 millisecond intervals for 1200 seconds. […] Cells were washed 1×, and analyzed for mean fluorescent intensity (MFI) of 10^4 cells. […] Values were fit to the equation Y=m1*M0/(m2+M0) (see materials and methods).

[5] = biological target: β4 integrin (NIH3T3-derived cells) (UniProt A2A863 29-1818, limits assumed); experiment: two-column affinity chromatography (ICAM-2 solid support, then streptavidin-agarose) and immunoblot
ezrin in NIH3T3 cells = ezrin in NIH3T3 cells (UniProt P26040 1-586); experiment: co-immunoprecipitation (IP ICAM-2, immunoblot ezrin) from transduced NIH3T3 cells
From the text: Control lysates were not subjected to immunoprecipitation and reflect positive controls for detected interacting protein. […] Phosphotransfer of ATP to peptide substrate was detected by scintillation counting and presented as counts per minute CPM.

T1 sequence (P20701 26-1170, chain 1 of 2): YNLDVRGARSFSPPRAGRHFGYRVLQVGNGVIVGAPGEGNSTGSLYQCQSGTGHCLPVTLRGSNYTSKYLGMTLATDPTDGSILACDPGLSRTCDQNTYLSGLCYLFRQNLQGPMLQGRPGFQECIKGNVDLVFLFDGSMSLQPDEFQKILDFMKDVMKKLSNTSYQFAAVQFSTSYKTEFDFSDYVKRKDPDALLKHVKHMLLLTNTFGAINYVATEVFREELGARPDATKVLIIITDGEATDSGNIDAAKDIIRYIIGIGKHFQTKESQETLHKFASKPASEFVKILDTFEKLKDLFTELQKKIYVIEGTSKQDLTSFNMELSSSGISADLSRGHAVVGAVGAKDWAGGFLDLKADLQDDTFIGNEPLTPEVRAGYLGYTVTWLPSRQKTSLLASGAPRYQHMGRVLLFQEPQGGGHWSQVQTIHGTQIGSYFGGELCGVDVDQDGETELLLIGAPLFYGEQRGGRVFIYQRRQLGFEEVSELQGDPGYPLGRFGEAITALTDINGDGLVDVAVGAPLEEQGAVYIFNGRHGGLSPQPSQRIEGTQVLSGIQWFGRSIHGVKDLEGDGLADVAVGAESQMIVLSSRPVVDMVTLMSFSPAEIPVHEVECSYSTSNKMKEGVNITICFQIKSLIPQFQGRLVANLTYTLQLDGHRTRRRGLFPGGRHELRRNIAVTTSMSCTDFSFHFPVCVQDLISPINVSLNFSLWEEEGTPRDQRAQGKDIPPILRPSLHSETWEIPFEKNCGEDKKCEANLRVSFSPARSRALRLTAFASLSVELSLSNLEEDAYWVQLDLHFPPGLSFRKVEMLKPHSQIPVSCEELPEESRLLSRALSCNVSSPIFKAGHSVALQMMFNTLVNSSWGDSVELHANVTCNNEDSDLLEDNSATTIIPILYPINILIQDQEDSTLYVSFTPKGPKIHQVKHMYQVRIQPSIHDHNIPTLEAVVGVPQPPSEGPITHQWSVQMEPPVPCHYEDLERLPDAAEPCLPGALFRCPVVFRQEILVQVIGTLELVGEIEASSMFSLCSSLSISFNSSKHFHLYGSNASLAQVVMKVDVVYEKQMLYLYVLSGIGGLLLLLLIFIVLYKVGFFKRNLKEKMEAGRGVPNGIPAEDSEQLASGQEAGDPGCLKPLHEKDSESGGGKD
T1 sequence (P05107 23-769, chain 2 of 2): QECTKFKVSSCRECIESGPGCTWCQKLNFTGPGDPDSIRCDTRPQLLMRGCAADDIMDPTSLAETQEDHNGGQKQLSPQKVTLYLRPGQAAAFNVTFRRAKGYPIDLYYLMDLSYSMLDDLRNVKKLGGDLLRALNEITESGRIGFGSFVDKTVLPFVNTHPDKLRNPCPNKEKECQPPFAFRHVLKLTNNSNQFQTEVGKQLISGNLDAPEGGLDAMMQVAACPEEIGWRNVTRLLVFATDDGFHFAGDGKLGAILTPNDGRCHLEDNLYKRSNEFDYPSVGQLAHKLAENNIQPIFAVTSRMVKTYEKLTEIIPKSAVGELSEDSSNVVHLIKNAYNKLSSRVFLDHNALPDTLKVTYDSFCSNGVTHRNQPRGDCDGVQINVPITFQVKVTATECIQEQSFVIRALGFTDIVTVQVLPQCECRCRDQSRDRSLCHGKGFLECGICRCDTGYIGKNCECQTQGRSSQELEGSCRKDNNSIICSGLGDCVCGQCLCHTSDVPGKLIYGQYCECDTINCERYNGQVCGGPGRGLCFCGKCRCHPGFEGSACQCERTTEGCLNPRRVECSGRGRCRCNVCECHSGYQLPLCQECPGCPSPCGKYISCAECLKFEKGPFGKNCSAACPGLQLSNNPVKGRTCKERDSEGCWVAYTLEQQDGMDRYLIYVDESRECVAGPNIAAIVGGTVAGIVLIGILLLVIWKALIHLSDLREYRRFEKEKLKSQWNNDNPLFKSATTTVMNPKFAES
β4 integrin (NIH3T3-derived cells), sequence (A2A863 29-1818 limits assumed): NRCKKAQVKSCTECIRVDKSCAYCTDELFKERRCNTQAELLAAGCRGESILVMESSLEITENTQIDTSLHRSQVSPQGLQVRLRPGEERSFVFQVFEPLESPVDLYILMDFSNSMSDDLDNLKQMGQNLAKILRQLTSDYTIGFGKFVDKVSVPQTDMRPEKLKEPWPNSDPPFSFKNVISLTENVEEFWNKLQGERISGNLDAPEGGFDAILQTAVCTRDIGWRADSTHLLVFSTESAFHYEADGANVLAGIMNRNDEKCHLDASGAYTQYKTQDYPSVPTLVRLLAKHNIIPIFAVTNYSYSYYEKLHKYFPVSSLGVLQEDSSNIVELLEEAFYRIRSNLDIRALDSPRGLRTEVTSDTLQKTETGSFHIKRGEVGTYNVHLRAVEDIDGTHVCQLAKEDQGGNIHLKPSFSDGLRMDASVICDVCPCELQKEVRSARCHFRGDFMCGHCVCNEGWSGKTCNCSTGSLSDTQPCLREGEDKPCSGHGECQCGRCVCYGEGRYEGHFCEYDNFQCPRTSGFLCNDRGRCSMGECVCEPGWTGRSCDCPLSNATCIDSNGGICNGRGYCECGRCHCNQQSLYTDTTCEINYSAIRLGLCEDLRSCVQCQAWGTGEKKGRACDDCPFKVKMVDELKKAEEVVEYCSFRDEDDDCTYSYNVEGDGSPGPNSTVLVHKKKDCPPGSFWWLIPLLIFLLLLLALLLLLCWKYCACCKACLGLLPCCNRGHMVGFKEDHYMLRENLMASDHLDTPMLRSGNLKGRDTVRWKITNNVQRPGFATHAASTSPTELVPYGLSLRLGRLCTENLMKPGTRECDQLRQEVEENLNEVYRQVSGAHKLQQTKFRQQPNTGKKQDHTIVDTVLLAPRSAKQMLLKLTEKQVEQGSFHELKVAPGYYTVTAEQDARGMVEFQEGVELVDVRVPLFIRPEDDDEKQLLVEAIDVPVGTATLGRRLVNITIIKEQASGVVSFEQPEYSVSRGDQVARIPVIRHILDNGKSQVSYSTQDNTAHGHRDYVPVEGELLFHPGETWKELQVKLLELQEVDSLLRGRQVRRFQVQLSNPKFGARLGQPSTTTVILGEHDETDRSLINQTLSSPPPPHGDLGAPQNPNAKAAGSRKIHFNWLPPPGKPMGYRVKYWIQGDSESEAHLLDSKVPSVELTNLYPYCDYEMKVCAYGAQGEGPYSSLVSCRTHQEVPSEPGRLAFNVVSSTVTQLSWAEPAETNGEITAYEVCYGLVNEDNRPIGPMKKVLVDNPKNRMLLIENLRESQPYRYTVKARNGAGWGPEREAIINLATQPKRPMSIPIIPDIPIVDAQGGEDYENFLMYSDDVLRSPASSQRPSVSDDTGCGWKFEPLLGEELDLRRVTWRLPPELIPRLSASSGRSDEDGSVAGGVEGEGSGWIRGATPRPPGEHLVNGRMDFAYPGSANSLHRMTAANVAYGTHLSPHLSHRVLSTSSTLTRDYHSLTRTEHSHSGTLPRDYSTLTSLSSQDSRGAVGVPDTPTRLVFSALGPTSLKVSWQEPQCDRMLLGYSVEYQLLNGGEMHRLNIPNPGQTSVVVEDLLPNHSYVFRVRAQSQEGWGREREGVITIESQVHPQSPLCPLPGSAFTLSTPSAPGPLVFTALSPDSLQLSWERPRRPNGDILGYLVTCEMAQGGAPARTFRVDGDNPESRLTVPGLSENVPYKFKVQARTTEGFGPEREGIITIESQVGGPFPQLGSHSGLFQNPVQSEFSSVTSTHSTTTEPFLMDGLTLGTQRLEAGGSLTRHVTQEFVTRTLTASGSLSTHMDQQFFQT
ezrin in NIH3T3 cells, sequence (P26040 whole entry): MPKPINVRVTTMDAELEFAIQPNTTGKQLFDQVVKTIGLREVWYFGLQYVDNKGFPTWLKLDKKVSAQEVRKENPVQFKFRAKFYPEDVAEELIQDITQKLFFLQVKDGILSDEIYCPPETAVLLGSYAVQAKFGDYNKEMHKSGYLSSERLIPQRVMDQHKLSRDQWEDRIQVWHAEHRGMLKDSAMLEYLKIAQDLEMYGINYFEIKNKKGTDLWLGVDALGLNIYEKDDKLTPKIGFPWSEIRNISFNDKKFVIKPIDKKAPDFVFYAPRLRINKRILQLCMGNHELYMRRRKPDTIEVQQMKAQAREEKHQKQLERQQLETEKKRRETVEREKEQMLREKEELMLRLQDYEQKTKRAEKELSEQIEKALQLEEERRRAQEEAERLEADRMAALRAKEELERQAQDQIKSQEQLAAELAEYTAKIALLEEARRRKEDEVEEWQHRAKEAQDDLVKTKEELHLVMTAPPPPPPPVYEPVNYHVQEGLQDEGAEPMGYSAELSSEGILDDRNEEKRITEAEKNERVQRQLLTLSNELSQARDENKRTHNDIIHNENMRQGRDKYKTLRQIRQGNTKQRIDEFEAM

phospho-p38 MAP kinase (Thr180/Tyr182) monoclonal antibody 28B10
percent of cells in the drawn gate (number printed beside the gate) [1]: 13.3

phospho-AKT Ser473 monoclonal antibody 4E2
percent of gated cells (number printed below the gate) [2]: 43.9

B1: soluble human ICAM-2 protein, biochemically purified from retrovirally transduced NIH3T3 cells (ligand, UniProt P13598 25-275, looked up)
chain: KVFEVHVRPKKLAVEPKGSLEVNCSTTCNQPEVGGLETSLDKILLDEQAQWKHYLVSNISHDTVLQCHFTCSGKQESMNSNVSVYQPPRQVILTLQPTLVAVGKSFTIECRVPTVEPLDSLTLFLFRGNETLHYETFGKAAPAPQEATATFNSTADREDGHRNFSCLAVLDLMSRGGNIFHKHSAPKMLEIYEPVSDSQMVIIVTVVSVLLSLFVTSVLLCFIFGQHLRQQRMGTYGVRAAWRRLPQAFRP
modifications: FITC (NHS-fluorescein) conjugate where used as ICAM-2-FITC, sites not stated
notes: mature; also called sICAM-2; soluble ICAM-2
stimulus needed for similar expression of CD69 and CD25 on naive CD4+ T cells, 6 hr [3]: 10000 fold
Kd [4]: 0.217 µM
binding result [5]: no binding

B2: human ICAM-2, full length, in cells (receptor, UniProt P13598 25-275, looked up)
chain: B1 chain
notes: whole, on cells; Used in co-immunoprecipitations from cell lysates, FACS staining and cell mixing assays; also called ICAM-2 cells; CD102
binding result (ezrin in NIH3T3 cells): binds
